According to the nanobody polyreactivity screen of Harvey et al. (2022):

Assay: yeast display, Sf9 membrane polyspecificity reagent, FACS + sequencing; frameworks hold sequencing errors
Outline: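 Nanobodies from a synthetic yeast display library (Saccharomyces cerevisiae BJ5465), induced 36–48 hours with galactose, were stained 1 hour at 4 °C with 10% biotinylated, detergent-solubilized Sf9 membrane reagent, enriched on streptavidin microbeads, then FACS-sorted. Anti-HA (expression) and streptavidin (reagent binding) fluorescence set low and high (top ~1%) gates. Polyreactivity labels come from the gate of origin. Genes were colony-PCR amplified, MiSeq 2 × 250 sequenced and filtered by CDR length.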

Sequence	polyreactivity (PSR sort gate)
QVQLVESGGGFVQAGGSLRLSSAASGINFYRKTMGWYRQAPGKERELVASISRGGSTYYADSVKGRFTISRDNAKNTVYLQMNILKPEDTAVYYCSTSGQQYYSRNFDYWGQGTQVTVSS	low polyreactivity
QVQLVESGGGFVQSGGSLRLSCAASGITFRYYTMGWYRQPPRKERELDAVISWSGGSTYYADSVKGRFTISRDNAKNTVYLQRNSLKPEDTAVYYCAAVRRISRYDYWGQGTQVTVSS	high polyreactivity
QVQLVESGGGIDQAGGSLRLSCAASGGTFFSNAMGWYRQAPGKERELVAGITSGGRTYYADSVKGRFTISRDNAKNTVYLQMNSLKPEDTAVDYCATRSRRTYYYYGAEGYWGQGTQVTVSS	high polyreactivity
QVQLVESGGGILQAGGSLRLSCAASGFTFLGYVMGWYRQSPGKEREIVADITESGGRTYYADSVKGRFTISRDNAKNTVFLQMNSLKPEDTAVYYCAAELSYWGYYYSFDYWGHGTQVTVSS	low polyreactivity
QVQLVESGGGIVPAGGSLRLSCAASGRSFYNYAMGWYRQAPGKERELVASISGIGGTTYYADSVKGRFTISRDNAKNTVYFQMNSLKPEDTAVYYCAARLYNWRRYGYWGQRTQVTVSS	high polyreactivity
QVQLVESGGGIVQAGGSLLLSCAASGRIFEKYALGWYRQAPGKDRELVAAISYSGGSTYYADSVKGSFTSSRDKAKNTVYFQMNSLKPEDTAVYYCARYSRTQAYDYWGQGTQVTVSS	high polyreactivity
QVQLVESGGGIVQAGGSLRFSCAASGFTFWKYTRGWYRQAPGKERELVAAINGGGGDTYADSVKGRFTISRDNAKNTVYLQMNSLKPEDTAVYYCAARYGTGTTWVQPTEMDYWGQGTQVTVSL	low polyreactivity
QVQLVESGGGIVQAGGSLRISCAASGRIFSTYAMGWYRQAPGKERELVAAINKIGGSTYYADSVKGRFTISRDNAKNTVYLQMNSLKPEDTAVYYCAADAPYYPVRRYYYWGQGTQVTVSS	low polyreactivity
QVQLVESGGGIVQAGGSLRLAVLPPDLPSTLNDMGWSTQAPGKERELVAAITRGGSTNSADSVKGRFTISRDNAKNTVYLQMNILKPEDTAVYYCDKDSLVDHVGGYDYWGQATQVTVSS	low polyreactivity
QVQLVESGGGIVQAGGSLRLCCAASGRSFSHYAMGWSRQAPGKDRELVATITRNGGITYYADSVKWRFTISRDNAKNTVYLQMNSLKPEDTAVYYCAAGRYYNLRATHGYWGQATQVTVSS	low polyreactivity
QVQLVESGGGIVQAGGSLRLICAASGSTFYPYAMGWYRQAPGKERELVAGISWSGGSTYYADSVKGRFTISRDNAKYTVYLQMNSLKPEDTAVYYCAVDVYWSVIYDYWGQGTQVTVSS	low polyreactivity
QVQLVESGGGIVQAGGSLRLNSAASGITINGNAMGWYRQEPGKERQLVAAISRSSSRTYYADSVKGRFTISRDNAKNTVYLQKNSLKQEDTAVYYCAALSLNVDAPSYGYWGQGTQVTVSS	high polyreactivity
QVQLVESGGGIVQAGGSLRLSCAAAGSNFTVYVMGWYRQAPGKERELVARISSDGSTNYADSVKGRFTISRDNAKNSVFLQMNSLKPEDTAVYYCNADFPFSGRRPWYNAYDYWGQGTQVTVSS	low polyreactivity
QVQLVESGGGIVQAGGSLRLSCAASGFIFDAYAMGWYRQAPGKERELVAGISIGGRTIYADSVKGRFTISRDNAKNTVYLQMNSLKPEDTAVYYCAARNYRYYYGSYYRGPITNYEYWGQGTQVTVSS	low polyreactivity
QVQLVESGGGIVQAGGSLRLSCAASGFIFDQNAMGWYRQAPGKERELVAAISKRGGSTYYADSVKGRFTISRDNAKNTVYLQMNSLKREDTAVYYCATRSWGPYYYGYNHWGQGTQVTVSS	high polyreactivity
QVQLVESGGGIVQAGGSLRLSCAASGFTISRNTMGWYRQAPGKEREFVARISAYGGSTYYADSVKGRFTISRDNAKNSVYLQMNSLKPVDTAVYYCAAVYRRYGGSRYDYWGQGTQVTVSS	high polyreactivity
QVQLVESGGGIVQAGGSLRLSCAASGGIFDSYAMGWYRQAPGKERELVADITSGGSTNYADSVKGRFTISRDNAKNTVYLQMNSLKPEDTAVYYCAKEFYYSVGVNLGDSWGQGIQVTVSS	low polyreactivity
QVQLVESGGGIVQAGGSLRLSCAASGGIFDYNAMGWYRQAPGKERELVAAISGSDVSTYYADSVKGRFTISRDNAKNTVYLQMKSLKPEDTAVYYCAADAPWAYYEYDYWGQGTQVTVSS	low polyreactivity
QVQLVESGGGIVQAGGSLRLSCAASGIIFQTYAKGWYRQAPGKERELVAAISRSGGSTYYADSVKGRFTISRENSKNTVYLQMNSLKPEDTAVYYCAAYGYNVNWLKGIYWGQGTQVTVSS	high polyreactivity
QVQLVESGGGIVQAGGSLRLSCAASGIIFRAYAMGWSRQAPGKDRELVAAISWSGGSTYYADSVKGRFTISRDNAKNTVYLQMNSLKPEDTAVYYCAARRWKGYYYWGQGTQVNVSS	high polyreactivity
QVQLVESGGGIVQAGGSLRLSCAASGITFAFYDMGWYRQAPGTERELVAAISYSGGGTYYADSVKGRFTISRDNAKNTVYLQMNSLKPEDTAVYYCAADPKTHPLFGEDYWGQGTQVTVSS	low polyreactivity
QVQLVESGGGIVQAGGSLRLSCAASGITFGRNTMGWYRQAPGKERELVAAIDSGGNTYADSVKGRFTISRDNAKNTVYLQMNSLKPEDTAVYYCAVDGGEFSSYGYWGQGTQVTVSS	low polyreactivity

Sequence	polyreactivity (PSR sort gate)
QVQLVESGGGIVQAGGSLRLSCAASGITFVAYDMGGYRQAPGKERELVAAITWNGDRTYYADSVKGRFTISRDNAKNTVYVEMNSLKPEDTAVYDCSAYHYYYEMDYWGQGTQVTVPS	high polyreactivity
QVQLVESGGGIVQAGGSLRLSCAASGITIQGYTMGWYRQEPGKERELVAAISSNGGRTYYADSVKGSFTISRDNAKNTVYLQMNSLKPEDTAVDYCAARKWRLIVDYWGEGTQVTVSS	high polyreactivity
QVQLVESGGGIVQAGGSLRLSCAASGLIFFTYAMGWYSQAPGKERELVAAITTGGSTNYADSVKGRFTISRDNAKKTVYLQMNSLKPEDTAVYYCAAQRVSVLLFVRHDYWGQGTQVTVSS	low polyreactivity
QVQLVESGGGIVQAGGSLRLSCAASGLIIQNNAMVWNRQAPGKERELVAAITSDGSTYADSVKGRFTISRDNAKNTVYLQMNSLKPEDTAVYYCNADGITSLPVPALDYWGQGTQVTVSS	low polyreactivity
QVQLVESGGGIVQAGGSLRLSCAASGMGWYRQAPGKERELVADITSRGGSTYYADSVKGRFTISRDNAKITVYLQMNSLKPEDTAVSYCAARKRVVQFDYWGQGTQVTVSS	low polyreactivity
QVQLVESGGGIVQAGGSLRLSCAASGNAMGWYRQAPGKERELVASINRSGGRTYYADSVKGRFTISRDNAKNTVYLQMNSLKPEDTAVYYCAARPHYDSDYWGQGTQVTVSS	low polyreactivity
QVQLVESGGGIVQAGGSLRLSCAASGNIFFWYDMGWYRQAPGKERELVATITSSGGSTYYADSVKGRFTISRDNAKNTVYLQMNSLKPEDTAVYYCNALPYYRDDYWGQGTQVTVSS	low polyreactivity
QVQLVESGGGIVQAGGSLRLSCAASGNIFHKNAMGWYRQAPGKERELVASISWSGGSTYYADSVKGRFTISRDNAKNTVYLQMNSLKPEDTAVYYCATDAFGYPGNRYALNDYWGQGTQVTVSS	low polyreactivity
QVQLVESGGGIVQAGGSLRLSCAASGNIFSYKAMGWYRQAPRTERELVDAISRSGGSTYYADSVKGRFTISRDNAKNTVYLQMNSLKPEDTAVYYCAADWRGRKYDYWGQGTQVTVSS	high polyreactivity
QVQLVESGGGIVQAGGSLRLSCAASGRIFAYYAMGWYRQAPGKERELVAAISTSGGSTYYADSVKGRFTISRDNAKNTVYLQMNSLKPEDTAVYYCAAEFGGGRSTNFDYWGQGTQVTVSS	low polyreactivity
QVQLVESGGGIVQAGGSLRLSCAASGRIFEWYAMGWYRQAPGKERELVAAITKTAGSTYYADSVKGRFTISRDNAKNTVYLQMNSLKPEDTAVYYCNAKTYHSRRKVLRFDYWGQGTQVTVSS	low polyreactivity
QVQLVESGGGIVQAGGSLRLSCAASGRIFGIYERGWLRQAPGKEREMVAGITRGDRTYADSVKGRFTISRDNAKNTVYLQMNSLKPVDTAVYYCNADVYPYKLALPAGMGYWGQGTQVTVSS	high polyreactivity
QVQLVESGGGIVQAGGSLRLSCAASGRIFYVNAMGWYRQSPGKERELVAAISRSGSSTYYADSVKGRFTISRDNAKNTVYLQMNSLKPEDTAVYYCAARYYGRSQHHFDYWGQGTQVTVSS	high polyreactivity
QVQLVESGGGIVQAGGSLRLSCAASGRIVRNYAMGWYRQAPGKERELVAGITRGGRTNYAHSVKGRFTISRDNAKNTVYLQMNSLKPEDTAVYYCNKVSSFGYYYWGQGTQVTVSS	high polyreactivity
QVQLVESGGGIVQAGGSLRLSCAASGRTFEQNVMRWYRQAPGKERELVAAITTGGSTNYADSVKGRFTISRDNAKNTVYLQMNSLKPEDTAVYYCAADRYLGGDYDYWGQGTQVTVSS	low polyreactivity
QVQLVESGGGIVQAGGSLRLSCAASGRTFPGYAMGWSRQAPGKERELVATITFSDGSTYYADSVKGRFTISRDNAKNTVYLQMNSLKPEDTAVYYCNARRSYFLRYGVNYWGQGTQVTVSS	low polyreactivity
QVQLVESGGGIVQAGGSLRLSCAASGRTFPRYAMGWYRQAPGKERELVAAISVRAGITYYADSVKGRFTISRDNAKNTVYLQMNSLKPEDTAVYYCAKDHWTTSYDEGDYWGQGTQVTVSS	low polyreactivity
QVQLVESGGGIVQAGGSLRLSCAASGRTFQANAMGWYRQAPGKERELVAVISSRGTRTYYADSVKGRFTISRDNAKNTVYLQMNSLKPEDTAVYYCAARVPSVGNQSGYDYWGQGTQVTVSS	high polyreactivity
QVQLVESGGGIVQAGGSLRLSCAASGRTFVLNALGWYRQAPGKERELVAAITLGGGSTYADSVKGRFTISRDNAQNTVYLQMNSLKPEDTAVYYCAADFHYPDFEYWGQGTQVTVSS	low polyreactivity
QVQLVESGGGIVQAGGSLRLSCAASGRTFVSYAKGWYRQAPGKERELVAAISSSGGRTYYADSVKGRFTISRDNAKNTVYLQMNSLKPEDTAVYYCNAVRFISARYDYWGQGTQVTVSS	high polyreactivity
QVQLVESGGGIVQAGGSLRLSCAASGRTLDKYTMGWYRQAPGKERELVASITSGGSTNYADSVKGRFTISRDNAKNTVYLQMNSLKPEDTAVYYCNKRRRVSKLGQGYDYWGQGTQVTVSS	low polyreactivity
